# Target: HA-SKP2 phosphorylated in vitro by AKT (32P-SKP2) (UniProt Q13309)
# Sequence (Q13309 whole entry, looked up): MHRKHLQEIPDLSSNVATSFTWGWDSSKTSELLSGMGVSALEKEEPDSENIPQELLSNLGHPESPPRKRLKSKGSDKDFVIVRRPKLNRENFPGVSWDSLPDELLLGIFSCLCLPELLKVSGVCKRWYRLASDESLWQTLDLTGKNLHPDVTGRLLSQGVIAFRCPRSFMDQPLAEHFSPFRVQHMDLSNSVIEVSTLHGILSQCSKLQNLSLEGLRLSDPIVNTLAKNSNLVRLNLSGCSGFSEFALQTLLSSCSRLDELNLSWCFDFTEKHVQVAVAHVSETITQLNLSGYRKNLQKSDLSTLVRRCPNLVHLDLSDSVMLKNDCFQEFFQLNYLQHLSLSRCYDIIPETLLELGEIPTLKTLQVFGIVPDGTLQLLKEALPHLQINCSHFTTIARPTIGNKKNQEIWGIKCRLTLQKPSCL
substance,measurement,value
flag-PTEN,removal of 32P from AKT-phosphorylated SKP2,neither PTEN nor PPM1H exhibited any evidence of phosphatase activity on SKP2

# Source: patent publication US20110151454
